This passage reports tumor uptake of the 131I-labelled antibody in nude mice bearing LNCaP tumors, one day post injection (% injected dose/gram) (% injected dose/gram) results from patent publication US7666414B2.

The test has as its target prostate specific membrane antigen (PSMA) on LNCaP cells (human) (UniProt Q04609).

Substance irrelevant IgG antibody showed a tumor uptake of the 131I-labelled antibody in nude mice bearing LNCaP tumors, one day post injection (% injected dose/gram) (% injected dose/gram) of 4.41.
